Laboratory results from patent publication US20220378925A1 (ORIONIS BIOSCIENCES, published 2022).

Target: PD-L1 endogenously expressed on HL116 cells (human, UniProt Q9NZQ7 19-290)
Assay: cell-based or functional assay

Sequence of PD-L1 endogenously expressed on HL116 cells (Q9NZQ7 19-290): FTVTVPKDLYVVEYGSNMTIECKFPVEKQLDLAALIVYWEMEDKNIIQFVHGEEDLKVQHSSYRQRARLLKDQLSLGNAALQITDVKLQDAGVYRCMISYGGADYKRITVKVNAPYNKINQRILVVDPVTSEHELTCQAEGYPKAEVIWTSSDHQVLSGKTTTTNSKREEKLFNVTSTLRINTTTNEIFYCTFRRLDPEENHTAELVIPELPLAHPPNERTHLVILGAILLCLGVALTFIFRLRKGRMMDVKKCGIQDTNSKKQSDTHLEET

B1: 2LIG99-hIFNα1, linker-cysteine 12 kDa PEGylated (other)
chain: DVQLVESGGGLVQPGGSLRLSCTASGTIFSINRMDWFRQAPGKQRELVALITSGGTPAYADSAKGRFTISRDNSKNTVYLQMNSLRPEDTAVYYCHVSSGVYNYWGQGTLVTVSSGGSGGSGGSGGSGGSGGSGGSGGSGGSGGCGGSGGSGGSGGSGGSGGSGGSGGSGGSGGSCDLPETHSLDNRRTLMLLAQMSRISPSSCLMDRHDFGFPQEEFDGNQFQKAPAISVLHELIQQIFNLFTTKDSSAAWDEDLLDKFSTELYQQLNDLEACVMQEERVGETPLMNADSILAVKKYFRRITLYLTEKKYSPCAWEVVRAEIMRSLSLSTNLQERLRRKEHHHHHH
modifications: 12 kDa mPEG-Maleimide on the cysteine in the middle of the linker (about 75% monoPEGylated material)
decrease of biological activity after linker-cysteine PEGylation, HL116 reporter-assay: 10 fold

B2: 2LIG99-hIFNα1, amine PEGylated (polyPEGylated, mPEG20K-Succinimidyl Carboxymethyl Ester) (other)
chain: DVQLVESGGGLVQPGGSLRLSCTASGTIFSINRMDWFRQAPGKQRELVALITSGGTPAYADSAKGRFTISRDNSKNTVYLQMNSLRPEDTAVYYCHVSSGVYNYWGQGTLVTVSSGGSGGSGGSGGSGGSGGSGGSGGSGGSGGCGGSGGSGGSGGSGGSGGSGGSGGSGGSGGSCDLPETHSLDNRRTLMLLAQMSRISPSSCLMDRHDFGFPQEEFDGNQFQKAPAISVLHELIQQIFNLFTTKDSSAAWDEDLLDKFSTELYQQLNDLEACVMQEERVGETPLMNADSILAVKKYFRRITLYLTEKKYSPCAWEVVRAEIMRSLSLSTNLQERLRRKEHHHHHH
modifications: several 20 kDa PEG groups on the N-terminal amine and/or lysine residues (mainly polyPEGylated, sites not stated)
drop of biological activity upon amine (poly)PEGylation, HL116 reporter-assay: ~20000 fold

B3: 2LIG99-hIFNα1, N-terminal 20 kDa PEGylated (other)
chain: DVQLVESGGGLVQPGGSLRLSCTASGTIFSINRMDWFRQAPGKQRELVALITSGGTPAYADSAKGRFTISRDNSKNTVYLQMNSLRPEDTAVYYCHVSSGVYNYWGQGTLVTVSSGGSGGSGGSGGSGGSGGSGGSGGSGGSGGCGGSGGSGGSGGSGGSGGSGGSGGSGGSGGSCDLPETHSLDNRRTLMLLAQMSRISPSSCLMDRHDFGFPQEEFDGNQFQKAPAISVLHELIQQIFNLFTTKDSSAAWDEDLLDKFSTELYQQLNDLEACVMQEERVGETPLMNADSILAVKKYFRRITLYLTEKKYSPCAWEVVRAEIMRSLSLSTNLQERLRRKEHHHHHH
modifications: 20 kDa mPEG-aldehyde on the N-terminal amine (mainly mono-PEGylated)
reduction in biological activity after N-terminal 20 kD PEGylation, HL116 reporter-assay: ~20 fold
